# Results from US20040180380A1.
# What was measured:
# antibody P1 [1] = assay: peptide competition ELISA; competitor for P1
# antibody P1 [2] = assay: peptide competition ELISA; reference EPAELTDA
# antibody C1 [3] = assay: peptide competition ELISA; free peptide competes with coated target peptide for C1
# antibody C1 [4] = assay: peptide competition ELISA; competitor for C1
# antibody C1 [5] = assay: peptide competition ELISA; reference YEVQGEVF
Binder,IC50 (antibody P1 [1]) [µM],fold higher concentration (ineffective) than the antigen PET's half-maximum (antibody P1 [2]) [fold],IC50 (antibody C1 [3]) [µM],IC50 (antibody C1 [4]) [µM],fold higher concentration (ineffective) than the antigen PET's half-maximum (antibody C1 [5]) [fold]
YEVQGEVF [CRP-derived 8-mer PET sequence YEVQGEVF],,,1,,
VEVNGEVF [nearest-neighbor 8-mer VEVNGEVF],,,,> 1000,> 1000
YEVLGEEF [nearest-neighbor 8-mer YEVLGEEF],,,,> 1000,> 1000

# Now from value to binder:
IC50 (antibody P1 [1]) [µM],fold higher concentration (ineffective) than the antigen PET's half-maximum (antibody P1 [2]) [fold],IC50 (antibody C1 [3]) [µM],IC50 (antibody C1 [4]) [µM],fold higher concentration (ineffective) than the antigen PET's half-maximum (antibody C1 [5]) [fold],Binder
> 1000,25000,,,,EPVELTSA [nearest-neighbor 8-mer EPVELTSA]
> 1000,25000,,,,DPTQLTDA [nearest-neighbor 8-mer DPTQLTDA]
